How the values were obtained:
[1] = target: T1, HDAC9a-FLAG (Homo sapiens, UniProt Q9UKV0); conditions: FLUOR DE LYS substrate; TSA 1 μM (FIG. 7), preincubated 15 minutes at room temperature; SAHA concentration not given
[2] = target: HDAC9-FLAG (Homo sapiens, UniProt Q9UKV0); conditions: FLUOR DE LYS substrate; TSA 1 μM (FIG. 7), preincubated 15 minutes at room temperature; SAHA concentration not given
[3] = target: T1, HDAC9a-FLAG; assay: HDAC enzymatic assay, 3H-acetic acid released from 3H-histones; assay type: biochemical; parameters: made in house; host or cells: human kidney 293T cells, transient transfection, anti-FLAG M2 agarose immunoprecipitation, elution with FLAG peptide; conditions: 3H-histones substrate; SAHA 2 μM (FIG. 8); preincubated 30 minutes at 4° C.
Protocol: The reaction was stopped by the addition of 1M HCl/0.1 acetic acid. Released ^3H-acetic acid was extracted with ethyl acetate and quantified by scintillation counting. For inhibition studies, the immunoprecipitated complexes were preincubated with the different HDAC inhibitors for 30 minutes at 4° C.

[4] = test system: MEF2C mediated transcriptional activation; assay: p3XMEF2-luciferase reporter assay in 293T cells; assay type: cell-based, human; conditions: p3XMEF2-Luc; for repression of MEF2C mediated transcriptional activation: 1 ng, 10 ng, or 100 ng of plasmid; for MEF2C mediated transcriptional activation at the 100 ng dose: 100 ng plasmid
Protocol: It was then determined whether HDAC9 and HDAC9a repress MEF2-mediated transcription. This determination was carried out as follows. The p3XMEF2-luciferase reporter gene (100 ng) and the vector pRL-TK (Promega) (5 ng) were co-transfected into 293T cells in the absence (pcDNA3 empty vector) or presence of MEF2C (100 ng of pCMV-MEF2C). HDAC9-F (1 ng, 10 ng, or 100 ng of pFLAG-HDAC9; pFLAG-HDAC9 and HDAC9-FLAG are different constructs, with the FLAG sequence located at opposite ends of the HDAC9 nucleotide, but are functionally equivalent) or HDAC9a-F (1 ng, 10 ng, or 100 ng of pFLAG-HDAC9a; pFLAG-HDAC9a and HDAC9a-FLAG are different constructs, with the FLAG sequence located at opposite ends of the HDAC9a nucleotide, but are functionally equivalent) was included in a subset of experimental groups with the MEF2C vector. pFLAG empty vector was used to adjust the DNA to an equal amount in each transfection. The cells were harvested 24 to 36 hours after transfection and the luciferase activities were measured using the Dual-Luciferase™ Reporter Assay System from Promega according to the manufacturer's instruction. The firefly luciferase activity was first normalized to the co-transfected Renilla luciferase activity (encoded by the pRL-TK vector), and the luciferase activity value for cells transfected with MEF2C alone was set at 1. MEF2C activated transcription over 30 times the basal level of transcription. […] The transcriptional repression effect of HDAC9 and HDAC9a on MEF2C mediated transcription was a specific effect since a co-transfected reporter gene for transfection efficiency containing a TK promoter was not repressed by HDAC9 or HDAC9a.

[5] = HDAC enzymatic activity of immunoprecipitated HDAC9/HDAC9a compared with HDAC4; assay type: biochemical; conditions: comparable amount of protein; immunoprecipitated from 293T cells
[6] = test system: MEF2; assay: Anti-FLAG immunoprecipitation and anti-MEF2 Western blot; assay type: binding, human; conditions: 293T cells, anti-FLAG IP, anti-MEF2 Western
Protocol: The Xenopus homolog of HDRP, MITR, was identified as a MEF2 interacting transcriptional repressor (Sparrow et al., EMBO J. 18:5085-5098(1999)) and mouse HDRP also interacts with and represses MEF2 mediated transcription (Zhang et al., J. Biol. Chem. 276:35-39 (2001)). […] 293 cells were transfected with vector, HDAC9-FLAG, or HDAC9a-FLAG. […] Western blot analysis of the immunoprecipitated proteins was carried out, using anti-MEF-2 antibody to probe the blot.

Molecule | inhibition of HDAC9a deacetylase activity [1] | inhibition of HDAC9 deacetylase activity [2] | inhibition of histone deacetylase activity of HDAC9a-FLAG [3] | repression of MEF2C mediated transcriptional activation [4] | MEF2C mediated transcriptional activation at the 100 ng dose [4] | HDAC activity relative to the deacetylase activity of HDAC4 [5] | interaction with MEF2 [6]
O=C(CCCCCCC(=O)Nc1ccccc1)NO [SAHA, suberoylanilide hydroxamic acid] | completely inhibited | completely inhibited | completely inhibited |  |  |  | 
HDAC9a: alternatively spliced isoform of HDAC9, 879 amino acids (SEQ ID NO: 4); tested as FLAG-tagged protein (protein, listed as Homo sapiens, FLAG tag, tested as FLAG-tagged protein) MHSMISSVDVKSEVPVGLEPISPLDLRTDLRMMMPVVDPVVREKQLQQELLLIQQQQQIQKQLLIAEFQKQHENLTRQHQAQLQEHIKELLAIKQQQELLEKEQKLEQQRQEQEVERHRREQQLPPLRGKDRGRERAVASTEVKQKLQEFLLSKSATKDTPTNGKNHSVSRHPKLWYTAAHHTSLDQSSPPLSGTSPSYKYTLPGAQDAKDDFPLRKTASEPNLKVRSRLKQKVAERRSSPLLRRKDGNVVTSFKKRMFEVTESSVSSSSPGSGPSSPNNGPTGSVTENETSVLPPTPHAEQMVSQQRILIHEDSMNLLSLYTSPSLPNITLGLPAVPSQLNASNSLKEKQKCETQTLRQGVPLPGQYGGSIPASSSHPHVTLEGKPPNSSHQALLQHLLLKEQMRQQKLLVAGGVPLHPQSPLATKERISPGIRGTHKLPRHRPLNRTQSAPLPQSTLAQLVIQQQHQQFLEKQKQYQQQIHMNKLLSKSIEQLKQPGSHLEEAEEELQGDQAMQEDRAPSSGNSTRSDSSACVDDTLGQVGAVKVKEEPVDSDEDAQIQEMESGEQAAFMQQPFLEPTHTRALSVRQAPLAAVGMDGLEKHRLVSRTHSSPAASVLPHPAMDRPLQPGSATGIAYDPLMLKHQCVCGNSTTHPEHAGRIQSIWSRLQETGLLNKCERIQGRKASLEEIQLVHSEHHSLLYGTNPLDGQKLDPRILLGDDSQKFFSSLPCGGLGVDSDTIWNELHSSGAARMAVGCVIELASKVASGELKNGFAVVRPPGHHAEESTAMGFCFFNSVAITAKYLRDQLNISKILIVDLDVHHGNGTQQAFYADPSILYISLHRYDEGNFFPGSGAPNEVRFISLEPHFYLYLSGNCIA |  |  |  | in a dose-dependent manner | completely abolished | about ten times lower | interacted with MEF2
HDAC9: novel class II histone deacetylase, 1011 amino acids (SEQ ID NO: 2); tested as FLAG-tagged protein (protein, listed as Homo sapiens, FLAG tag, tested as FLAG-tagged protein) MHSMISSVDVKSEVPVGLEPISPLDLRTDLRMMMPVVDPVVREKQLQQELLLIQQQQQIQKQLLIAEFQKQHENLTRQHQAQLQEHIKELLAIKQQQELLEKEQKLEQQRQEQEVERHRREQQLPPLRGKDRGRERAVASTEVKQKLQEFLLSKSATKDTPTNGKNHSVSRHPKLWYTAAHHTSLDQSSPPLSGTSPSYKYTLPGAQDAKDDFPLRKTASEPNLKVRSRLKQKVAERRSSPLLRRKDGNVVTSFKKRMFEVTESSVSSSSPGSGPSSPNNGPTGSVTENETSVLPPTPHAEQMVSQQRILIHEDSMNLLSLYTSPSLPNITLGLPAVPSQLNASNSLKEKQKCETQTLRQGVPLPGQYGGSIPASSSHPHVTLEGKPPNSSHQALLQHLLLKEQMRQQKLLVAGGVPLHPQSPLATKERISPGIRGTHKLPRHRPLNRTQSAPLPQSTLAQLVIQQQHQQFLEKQKQYQQQIHMNKLLSKSIEQLKQPGSHLEEAEEELQGDQAMQEDRAPSSGNSTRSDSSACVDDTLGQVGAVKVKEEPVDSDEDAQIQEMESGEQAAFMQQPFLEPTHTRALSVRQAPLAAVGMDGLEKHRLVSRTHSSPAASVLPHPAMDRPLQPGSATGIAYDPLMLKHQCVCGNSTTHPEHAGRIQSIWSRLQETGLLNKCERIQGRKASLEEIQLVHSEHHSLLYGTNPLDGQKLDPRILLGDDSQKFFSSLPCGGLGVDSDTIWNELHSSGAARMAVGCVIELASKVASGELKNGFAVVRPPGHHAEESTAMGFCFFNSVAITAKYLRDQLNISKILIVDLDVHHGNGTQQAFYADPSILYISLHRYDEGNFFPGSGAPNEVGTGLGEGYNINIAWTGGLDPPMGDVEYLEAFRTIVKPVAKEFDPDMVLVSAGFDALEGHTPPLGGYKVTAKCFGHLTKQLMTLADGRVVLALEGGHDLTAICDASEACVNALLGNELEPLAEDILHQSPNMNAVISLQKIIEIQSMSLKFS |  |  |  | in a dose-dependent manner | completely abolished | about ten times lower | interacted with MEF2

Source: patent US7816499B2, “Antibodies that selectively bind HDAC9” (Sloan-Kettering Institute for Cancer Research, priority 2001, dated 2010)
